Data on 25 molecules can be found in patent US20240270866A1 (Alector, published 2024).

Where a chain is given by its changes, count along the chain named.

The chains are these.
B1: SA-38 Fab (Fab, V domains shown)
VH: QVQLQESGPGLVKPSQTLSLTCTVSGGSISSGGYYWSWIRQHPGKGLEWIGSIYYSGSTYYNPSLKSRVTISVDTSKNQFSLKLSSVTAADTAVYYCAREGAYSLYVNWFDPWGQGTLVTVSS
VL: EIVMTQSPATLSVSPGERATLSCRASQSVSSSLAWYQQKPGQAPRLLIFGASTRATGIPARFSGSGSGTEFTLTISSLQSEDFAVYYCQQYDNYPPITFGGGTKVEIK
notes: papain Fab
B2: SA-39 Fab (Fab, V domains shown)
VH: QVQLVQSGAEVKKPGASVKVSCKASGYTFTSYYMVWVRQAPGQGLEWMGIINPSGGSTSYAQKFQGRVTMTRDTSTSTVYMELSSLRSEDTAVYYCAREGGYGYRAYPYGMDVWGQGTTVTVSS
VL: DIQMTQSPSSLSASVGDRVTITCQASQDISNSLNWYQQKPGKAPKLLIYDASNLETGVPSRFSGSRSGTDFTFTISSLQPEDIATYYCQQVIILPLTFGGGTKVEIK
notes: papain Fab
B3: SA-28 Fab (Fab, V domains shown)
VH: QVQLQESGPGLVKPSQTLSLTCTVSGGSISSGGYYWSWIRQHPGKGLEWIGNIYYSGSTYYNPSLKSRVTISVDTSKNQFSLKLSSVTAADTAVYYCARDSDTSWGGFDYWGQGTLVTVSS
VL: EIVLTQSPGTLSLSPGERATLSCRASQSVRSSYLAWYQQKPGQAPRLLIYGASSRATGIPDRFSGSGSGTDFTLTISRLEPEDFAVYYCQQAGVSPYTFGGGTKVEIK
notes: papain Fab
B4: SA-36 Fab (Fab, V domains shown)
VH: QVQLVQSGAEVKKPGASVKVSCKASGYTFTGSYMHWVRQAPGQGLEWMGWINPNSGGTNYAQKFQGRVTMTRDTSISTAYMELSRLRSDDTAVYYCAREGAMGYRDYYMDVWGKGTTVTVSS
VL: EIVLTQSPATLSLSPGERATITCQASQDISSYLAWYQQKPGQAPRLLIYDASNRATGIPARFSGSGSGTDFTLTISSLEPEDFAVYYCQQRTHYPWTFGGGTKVEIK
notes: papain Fab
B5: SA-16 Fab (Fab, V domains shown)
VH: QVQLQQWGAGLLKPSETLSLTCAVYGGSFSGYYWSWIRQPPGKGLEWIGEIDHSGSTNYNPSLKSRVTISVDTSKNQFSLKLSSVTAADTAVYYCARDLGPPGPHLDVWGQGTMVTVSS
VL: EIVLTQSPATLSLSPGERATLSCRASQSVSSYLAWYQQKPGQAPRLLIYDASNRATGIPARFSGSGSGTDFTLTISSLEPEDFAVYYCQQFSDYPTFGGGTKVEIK
notes: papain Fab
B6: SA-35 Fab (Fab, V domains shown)
VH: QVQLVQSGAEVKKPGASVKVSCKASGYTFTSYYMHWVRQAPGQGLEWMGIINPSGGSTSYAQKFQGRVTMTRDTSTSTVYMELSSLRSEDTAVYYCAREAGYDIKGFDYWGQGTLVTVSS
VL: DIQMTQSPSTLSASVGDRVTITCRASQSISSWLAWYQQKPGKAPKLLIYKASSLESGVPSRFSGSGSGTEFTLTISSLQPDDFATYYCQQYGSFPLTFGGGTKVEIK
B7: SA-56 Fab (Fab, V domains shown)
VH: EVQLVESGGGLVKPGGSLRLSCAASGFTFSSYSMNWVRQAPGKGLEWVSSISSSSSYIYYADSVKGRFTISRDNAKNSLYLQMNSLRAEDTAVYYCARGVETYSGPNWFDPWGQGTLVTVSS
VL: DIQMTQSPSSVSASVGDRVTITCRASQGISSWLAWYQQKPGKAPKLLIYAASSLQSGVPSRFSGSGSGTDFTLTISSLQPEDFATYYCQQAIYFPITFGGGTKVEIK
notes: papain Fab; also called SA-56 (parental)
B8: SA-19-74 Fab (Fab, V domains shown)
VH: QVQLVESGGGVVQPGRSLRLSCAASGFAFSSYAMHWVRQAPGKGLEWVAGILYDGSNKYYADSVKGRFTISRDNSKNTLYLQMNSLRAEDTAVYYCARHSQKYTLGFAFDIWGQGTMVTVSS
VL: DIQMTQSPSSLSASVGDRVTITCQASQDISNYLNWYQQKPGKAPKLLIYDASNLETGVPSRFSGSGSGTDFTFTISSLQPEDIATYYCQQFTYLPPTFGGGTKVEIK
notes: papain Fab
B9: SA-19-84 Fab (Fab, V domains shown)
VH: B8 VH with A28T, A33G, G50V, L52A, Y59L, H99T, S100Q, Q101L
VL: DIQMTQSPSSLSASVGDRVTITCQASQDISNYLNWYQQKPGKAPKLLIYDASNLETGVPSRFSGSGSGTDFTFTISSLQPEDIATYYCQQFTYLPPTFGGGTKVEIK
notes: papain Fab
B10: SA-19-81 Fab (Fab, V domains shown)
VH: B8 VH with A28T, F29S, A33G, G50V, L52A, Y59L, H99T, S100P, Q101T
VL: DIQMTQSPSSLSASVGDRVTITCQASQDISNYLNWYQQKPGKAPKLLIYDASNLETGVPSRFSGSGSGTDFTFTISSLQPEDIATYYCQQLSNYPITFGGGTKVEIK
notes: papain Fab
B11: SA-19-76 Fab (Fab, V domains shown)
VH: QVQLVESGGGVVQPGRSLRLSCAASGFTFSSYGMHWVRQAPGKGLEWVAVIAYDGSNKLYADSVKGRFTISRDNAKNSLYLQMNSPRAEDTAVYYCATMRTKYTLGFAFDIWGQGTMVTVSS
VL: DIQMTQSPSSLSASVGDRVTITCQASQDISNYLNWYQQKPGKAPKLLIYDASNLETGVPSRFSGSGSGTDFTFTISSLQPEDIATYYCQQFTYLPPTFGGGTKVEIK
notes: papain Fab
B12: SA-19-83 Fab (Fab, V domains shown)
VH: B8 VH with A28T, S30D, A33L, G50S, L52I, R98S, H99V, S100R, Q101T
VL: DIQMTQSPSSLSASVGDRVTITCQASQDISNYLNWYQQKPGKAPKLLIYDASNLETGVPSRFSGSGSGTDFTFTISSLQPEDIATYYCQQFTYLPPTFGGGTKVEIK
notes: papain Fab
B13: SA-5-57 Fab (Fab, V domains shown)
VH: EVQLLESGGGLVQPGGSLRLSCAASGFTFDSYAMSWVRQAPGKGLEWVSATSGGGGSTYHADPVKGRFTISRDNSKNTLYLQMNSLRAEDTAVYYCAKDITDDFWSVTPPYFDLWGRGTLVTVSS
VL: B7 VL with M4L, G28D, A91G, I92Y, Y93I, I96R
notes: papain Fab
B14: SA-56-95 Fab (Fab, V domains shown)
VH: EVQLLESGGGVVQPGRSLRLSCAASGFTFAHYGMAWVRQAPGKGLEWVAVIWVDGSPKYYADSVKGRFTISRDNSKNTLYLQMNSLRAEDTAVYYCAVARETYSGPNWFDPWGQGTLVTVSS
VL: B7 VL
notes: papain Fab
B15: SA-56-87 Fab (Fab, V domains shown)
VH: B14 VH with L5V, A30S, H31Y, A35S, V50S, P57N, V98F, A99G, R100L
VL: B7 VL
notes: papain Fab
B16: SA-56-91 Fab (Fab, V domains shown)
VH: B14 VH with L5V, V50S, P57N, V98T, R100V
VL: B7 VL
notes: papain Fab
B17: SA-56-96 Fab (Fab, V domains shown)
VH: B14 VH with A30S, H31S, G33A, A35G, P57L, V98T, A99G
VL: B7 VL
notes: papain Fab
B18: SA-56-93 Fab (Fab, V domains shown)
VH: B14 VH with A30S, H31Y, A35S, V50S, P57N, T78A, A99S
VL: B7 VL
notes: papain Fab
B19: SA-56-85 Fab (Fab, V domains shown)
VH: EVQLLESGGGVVQPGRSLGLSCAASGSTFSYYGMSWVRQAPGKGLEWVASIWVDGSNKYYADSVKGRFTISRDNSKSTLYLQMNSLRAEDTAVYYCARGVETYSGPNWFDPWGQGTLVTVSS
VL: B7 VL with I106N, K107Q
notes: papain Fab
B20: SA-56-92 Fab (Fab, V domains shown)
VH: B19 VH with L5V, G19R, S27F, S77N, N84D, R98T
VL: B7 VL
notes: papain Fab
B21: SA-56-86 Fab (Fab, V domains shown)
VH: B19 VH with E1Q, L5V, R16G, G19R, S27F, N57S, S77N
VL: B7 VL
notes: papain Fab
B22: SA-56-89 Fab (Fab, V domains shown)
VH: B19 VH with L5V, R16G, G19R, S27F, I70V, S77N, N84D
VL: B7 VL
notes: papain Fab
B23: SA-56-88 Fab (Fab, V domains shown)
VH: B19 VH with L5V, G19R, S27F, V64A, S77N, R98E, V100K
VL: B7 VL
notes: papain Fab
B24: SA-5-58 Fab (Fab, V domains shown)
VH: B13 VH with T51I, G54S, P63S, I100T, T101G, D102I, D103S, F104L
VL: B7 VL with M4L, G28D, A91G, I92Y, Y93I, I96R
notes: papain Fab
B25: SA-5-59 Fab (Fab, V domains shown)
VH: EVQLLESGGGLVQPGGSLRLSCAASGFTFDNYAMSWVRQAPGEGLEWVSAVSGSGGSTYYADSVRGRFTISRDNSKNTLYLQMDSLRAEDTAVYYCAKDTGIDFWARTPPYFDLWGRGTLVTVSS
VL: B7 VL with M4L, G28D, A91G, I92Y, Y93I, I96R
notes: papain Fab

The target of the first assay is T1, human SIRPA Fc fusion antigen (human, UniProt P78324 31-373).
T1 construct: heterologous signal peptide; not shown: human IgG1 Fc
The assay can be described thus: ForteBio Fab monovalent. (In BLI a coated tip is dipped into the sample, and binding shifts an interference pattern.)
In the case of B1, binding was put at a Kd of 281 nM.

Molecule B2 displayed a Kd of 100 nM.

Molecule B3 had a Kd of 486 nM.

The molecule B4 had a Kd of 2070 nM.

B5 yielded a Kd of 257 nM.

B6 showed a dissociation constant (Kd) of 497 nM.

For the molecule B7, the Kd is 301 nM. Against the preceding molecule, the Kd is about 1.7-fold lower.

Another assay deals with T1, human SIRPA Fc fusion antigen. Nature of the assay: ForteBio Fab monovalent. This is another data set of the same source.
B8 showed an equilibrium dissociation constant (Kd) of 3.16 nM.

Regarding B9, binding was characterised by a dissociation constant (Kd) of 2.02 nM.

B10 gave a Kd of 1.53 nM.

For B11, the dissociation constant (Kd) amounted to 1.64 nM.

As for B12, the affinity, expressed as Kd, was 1.44 nM.

The molecule B13 yielded a dissociation constant Kd of 23.3 nM.

B7 gave a Kd of 206 nM.

In turn, B14 gave a Kd of 2.98 nM.

As to B15, the equilibrium dissociation constant (Kd) came to 1.1 nM.

For the molecule B16, binding was characterised by a dissociation constant (Kd) of 1.64 nM.

B17 showed a Kd of 5.35 nM.

Molecule B18 returned a dissociation constant Kd of 2.34 nM. Against the preceding molecule, the Kd is about 2.3-fold lower.

On to B19, for which the Kd was 0.772 nM.

B20 displayed a dissociation constant Kd of 1.29 nM.

For B21, the affinity, expressed as Kd, was 1.02 nM.

Take B22: the affinity, expressed as Kd, was 1.03 nM.

In turn, B23 had a Kd of 0.836 nM.

For a further assay, the target named is T2, human SIRPβ1 Fc fusion antigen (human, UniProt O00241 30-371).
T2 construct: not shown: human IgG1 Fc
T2 sequence (O00241 30-371 limits assumed): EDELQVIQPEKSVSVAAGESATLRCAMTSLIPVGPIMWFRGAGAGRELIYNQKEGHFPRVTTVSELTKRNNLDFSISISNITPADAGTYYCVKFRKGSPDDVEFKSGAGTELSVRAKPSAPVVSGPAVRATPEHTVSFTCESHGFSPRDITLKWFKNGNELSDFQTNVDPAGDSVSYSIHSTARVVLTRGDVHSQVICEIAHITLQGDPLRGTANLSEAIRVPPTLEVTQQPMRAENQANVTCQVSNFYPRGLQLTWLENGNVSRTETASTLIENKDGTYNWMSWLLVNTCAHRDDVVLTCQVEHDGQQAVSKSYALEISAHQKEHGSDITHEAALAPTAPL
The assay can be described thus: ForteBio Fab monovalent.
With B13, the binding result is listed as “no binding (tested: 100 nM)”.

Consider B7, for which the binding result is “no binding (tested: 100 nM)”.

Turning to B14, the binding result is given as “no binding (tested: 100 nM)”.

Consider B24, for which the binding result is reported as “no binding (tested: 100 nM)”.

Regarding B15, the binding result was “no binding (tested: 100 nM)”.

In the case of B16, the binding result was “no binding (tested: 100 nM)”.

Take B17: the binding result was “no binding (tested: 100 nM)”.

In the case of B18, the binding result is “no binding (tested: 100 nM)”.

On to B19, for which the binding result was “no binding (tested: 100 nM)”.

With B20, the binding result is “no binding (tested: 100 nM)”.

With B22, the binding result is reported as “no binding (tested: 100 nM)”.

For B25, the binding result was “no binding (tested: 100 nM)”.

As to B23, the binding result is “no binding (tested: 100 nM)”.

In another assay the target is T3, biotinylated human SIRPA (monomer) (human, UniProt P78324 31-373, limits assumed, biotinylated).
T3 construct: monomer made by IdeS cleavage of a SIRPA Fc fusion; also called recombinant human SIRPA
The assay can be described thus: MSD-SET, Fab, equilibrium.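 Note: solution equilibrium titration, free antigen captured on antibody-coated MSD plates and detected by electrochemiluminescence with labeled streptavidin, percent free antigen versus titrated antibody fit to quadratic model for KD.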
Description: Antibodies (20 nM in PBS) were coated onto standard bind MSD-ECL plates overnight at 4° C. or at room temperature for 30 min. Plates were then blocked with 1% BSA for 30 min with shaking at 700 rpm, followed by three washes with wash buffer (PBSF+0.05% Tween 20). SET samples were applied and incubated on the plates for 150s with shaking at 700 rpm followed by one wash. Antigen captured on a plate was detected with 250 ng/ml sulfotag-labeled streptavidin in PBSF by incubation on the plate for 3 min. The plates were washed three times with wash buffer and then read on the MSD Sector Imager 2400 instrument using 1× Read Buffer T with surfactant. The percent free antigen was plotted as a function of titrated antibody in Prism and fit to a quadratic equation to extract the KD. To improve throughput, liquid handling robots were used throughout MSD-SET experiments, including SET sample preparation.
Molecule B8 had a dissociation constant Kd of 1.1 nM.

B9 displayed a dissociation constant Kd of 0.64 nM.

B10: binding was characterised by a dissociation constant (Kd) of 0.37 nM.

On to B11, for which the Kd was found to be 0.42 nM.

Molecule B12 showed a Kd of 0.31 nM.

Molecule B14 displayed a Kd of 0.52 nM.

B15 had a dissociation constant (Kd) of 0.17 nM.

For B16, the dissociation constant (Kd) is 0.51 nM.

For B17, the Kd was 1.6 nM.

Molecule B18 gave a Kd of 0.36 nM.

Regarding B19, the Kd worked out at 0.12 nM.

For the molecule B20, the Kd is 0.35 nM. Compared with the last molecule, the Kd is about 2.9-fold higher.

B21 returned a Kd of 0.18 nM.

As to B22, the dissociation constant (Kd) turned out to be 0.25 nM.

In turn, B23 yielded a Kd of 0.16 nM. This Kd is about 1.6-fold lower than that of the molecule before.

By Kd is commonly meant the concentration at which binding is half-saturated.
